Measurements reported in US20180134804A1.
“And” between values parts separate entries of the source, which are not always exact repeats. Equal entries are not always repeated.

What was measured:
[1] = target: CD3 on purified human T cells (human) (UniProt P07766); assay: flow cytometry of purified human CD3 T cells, BiTE at 0.1 ug/ml then FITC secondary; same sample file as in FIGURE 5B
[2] = target: CD3 on purified human T cells (human) (UniProt P07766); assay: flow cytometry of purified human CD3 T cells, BiTE at 10 ug/ml then FITC secondary; secondary alone (GA6His_F 1;100) 8.13, unstained 8.13
[3] = target: CD3 on purified human T cells (human) (UniProt P07766); assay: flow cytometry of purified human CD3 T cells, BiTE at 1 ug/ml then FITC secondary; secondary alone (GA6His_F 1;100) 8.13, unstained 8.13
[4] = target: Ras10-WT peptide/HLA-A0201 complex on peptide-pulsed T2 cells (human)
[5] = target: Ras10-G12V peptide/HLA-A0201 complex on peptide-pulsed T2 cells (human)
[6] = target: CD3 on purified human T cells (human) (UniProt P07766); assay: flow cytometry of purified human CD3 T cells, BiTE at 0.1 ug/ml then FITC secondary; secondary alone (GA6His_F 1;100) 8.13, unstained 8.13
[7] = target: CD3 on purified human T cells (human) (UniProt P07766); assay: flow cytometry of purified human CD3 T cells, BiTE at 1 ug/ml then FITC secondary; same sample file as in FIGURE 5B
[8] = target: CD3 on purified human T cells (human) (UniProt P07766); assay: flow cytometry of purified human CD3 T cells, BiTE at 10 ug/ml then FITC secondary; same sample file as in FIGURE 5B
[9] = target: HLA-A0201 on T2 cells without added peptide (human); assay: flow cytometry: BB7 staining of T2 cells without peptide

Sequence of CD3 on purified human T cells (human) (P07766 23-207): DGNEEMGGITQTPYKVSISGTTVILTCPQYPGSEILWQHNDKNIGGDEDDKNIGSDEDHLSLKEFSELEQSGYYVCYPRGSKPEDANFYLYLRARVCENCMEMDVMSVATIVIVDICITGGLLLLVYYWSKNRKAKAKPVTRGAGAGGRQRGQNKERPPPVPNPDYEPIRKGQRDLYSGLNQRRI

isotype control BiTE (bispecific antibody)
Median:FL1-H [1]: 39.6
Median:FL1-H [2]: 604
Median:FL1-H [3]: 229
Median:FL1-H [4]: 10.7 and 11.2
Median:FL1-H [5]: 11.2 and 11.4
Median:FL1-H [6]: 39.6
Median:FL1-H [7]: 229
Median:FL1-H [8]: 604

BB7 (antibody)
Median:FL1-H [9]: 316
